In US20250163166A1 (REGENECORE BIOTECH, published 2025):
Substitutions are numbered along the chain they refer to.

T1: human recombinant CD123 protein (human, UniProt P26951 19-300)
T1 construct: range 19-300
T1 sequence (looked up): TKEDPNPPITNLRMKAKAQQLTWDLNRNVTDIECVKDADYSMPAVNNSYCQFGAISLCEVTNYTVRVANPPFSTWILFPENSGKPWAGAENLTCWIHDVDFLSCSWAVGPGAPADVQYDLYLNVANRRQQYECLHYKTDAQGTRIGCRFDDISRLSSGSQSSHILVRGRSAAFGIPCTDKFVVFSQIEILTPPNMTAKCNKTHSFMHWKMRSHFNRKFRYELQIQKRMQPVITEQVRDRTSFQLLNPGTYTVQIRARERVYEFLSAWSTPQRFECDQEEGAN

B1: bispecific antibody BM#26 against CD33 and CD123 (bispecific antibody, human IgG1)
chain 1: QVQLVESGGGSVQAGGSLRLSCAASGYTYSSTCIGWFRQAPGKDREGVAFAYTGGGVTYADSVKGRFTISQDNAKNTVHLIMNSLKPEDTAMYYCAAKTRGGCWAAAAFYNYWGQGTQVTVSSEPKSCDKTHTCPPCPAPELLGGPSVFLFPPKPKDTLMISRTPEVTCVVVDVSHEDPEVKFNWYVDGVEVHNAKTKPREEQYNSTYRVVSVLTVLHQDWLNGKEYKCKVSNKALPAPIEKTISKAKGQPREPQVYTLPPSRKKLTKNQVSLTCLVKGFYPSDIAVEWESNGQPENNYKTTPPVLVSDGSFTLYSKLTVDKSRWQQGNVFSCSVMHEALHNHYTQKSLSLSPGK
chain 2: QVQLVESGGGSVQAGGSLKLSCAASRFIFSRCGMGWFRQAPGKERELVSTISGDGTTFYADSVKGRFTISQHNAATTLYLQMNSLKLEDTAVYYCAADCYNRKYWGQGTQVTVSSEPKSCDKTHTCPPCPAPELLGGPSVFLFPPKPKDTLMISRTPEVTCVVVDVSHEDPEVKFNWYVDGVEVHNAKTKPREEQYNSTYRVVSVLTVLHQDWLNGKEYKCKVSNKALPAPIEKTISKAKGQPREPQVYTLPPSRDELTKNQVSLTCLVEGFYPSDIAVEWESNGQPENNYKTTPPVLDSDGSFFLYSWLTVDKSRWQQGNVFSCSVMHEALHNHYTQESLSLSPGK
notes: VHH-Fc heterodimer
B2: bispecific antibody BM#28 against CD33 and CD123 (bispecific antibody, human IgG1)
chain 1: B1 chain 1 with K265D, V307K, T313F
chain 2: B1 chain 2 with E270Y, W309D
notes: VHH-Fc heterodimer
B3: bispecific antibody BM#27 against CD33 and CD123 (bispecific antibody, human IgG1)
chain 1: B1 chain 1 with K265D
chain 2: B1 chain 2 with E270Y
notes: VHH-Fc heterodimer; also called BM-RT2831-#27
B4: bispecific antibody BM#32 against CD33 and CD123 (bispecific antibody, human IgG1)
chain 1: B1 chain 1 with Q255R, K264D, K265D, V307D, T313F, Y315A
chain 2: B1 chain 2 with K260D, E270Y, W309V, E339K
notes: VHH-Fc heterodimer; also called BM-RT2831-#32
B5: bispecific antibody BM#36 against CD33 and CD123 (bispecific antibody, human IgG1)
chain 1: not shown
chain 2: B1 chain 2 with E270K, T294S, V297A, F305A, Y307V, W309K, E339K
notes: VHH-Fc heterodimer
B6: bispecific antibody BM#29 against CD33 and CD123 (bispecific antibody, human IgG1)
chain 1: B1 chain 1 with Q255R, K265E, V307D, T313F, Y315A
chain 2: B1 chain 2 with K260D, E270K, W309V
notes: VHH-Fc heterodimer; also called BM-RT2831-#29
B7: bispecific antibody BM#30 against CD33 and CD123 (bispecific antibody, human IgG1)
chain 1: B1 chain 1 with Q255R, K264D, V307D, T313F, Y315A
chain 2: B1 chain 2 with K260D, W309V, E339K
notes: VHH-Fc heterodimer; also called BM-RT2831-#30
B8: anti-CD123 single domain antibody (VHH)
VHH: QVQLVESGGGSVQAGGSLKLSCAASRFIFSRCGMGWFRQAPGKERELVSTISGDGTTFYADSVKGRFTISQHNAATTLYLQMNSLKLEDTAVYYCAADCYNRKYWGQGTQVTVSS
notes: Tested as crude extract from the pMECS clone and detected through an HA tag; also called second VHH

Target: T2, human FCγRIIIa receptor (human, UniProt P08637 17-208, limits assumed)
T2 construct: Used in solution as the 'antigen' in BLI; also called FcγIIIa receptor
T2 sequence (P08637 17-208 limits assumed): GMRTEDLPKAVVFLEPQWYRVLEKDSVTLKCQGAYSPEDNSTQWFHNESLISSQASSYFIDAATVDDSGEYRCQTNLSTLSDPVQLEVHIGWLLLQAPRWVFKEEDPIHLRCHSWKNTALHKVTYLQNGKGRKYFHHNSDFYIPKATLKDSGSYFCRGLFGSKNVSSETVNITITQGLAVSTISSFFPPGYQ
Assay: BLI (Octet 96), antibody loaded on sensor, FCγRIIIa 200 nM and 2-fold dilutions in solution
Method: (§1) (3) Preparation of antigen working solution: 200 nM antigen (FCγRIIIa) in SD buffer was first prepared at and then serially diluted in 2 folds to prepare a total of 5 concentration gradients, in addition to which a zero concentration was prepared.
(§2) (11) Data analysis: related constants, such as KD, Kon, Koff, X2, Full R2 and the like were calculated in Data Analysis software.
(§3) In the examples of the present application, the modified bispecific antibody was subjected to BLI test to determine the affinity of the modified bispecific antibody to human FCγRIIIa.

Binder | Kd
B1 | 76.9 nM
B2 | 61.3 nM
B3 | 96.9 nM
B4 | 76 nM
B5 | 64.2 nM
B6 | 73.9 nM
B7 | 69.6 nM

Target: T2, human FCγRIIIa receptor
Assay: BLI; Ratio against the hIgG (hIgG1) control, fits KD(hIgG)/KD(sample)
Method: as §1, §2, §3

Binder | Ratio
B1 | 1.15
B2 | 1.45
B3 | 0.91
B4 | 1.17
B5 | 1.38
B6 | 1.2
B7 | 1.27

Target: T1, human recombinant CD123 protein
Assay: ELISA of crude antibody extract on coated antigen, anti-HA detection; positive clone if OD450 is more than 5 times the control
Method: 2. CD33 protein or CD123 protein was diluted into 100 mM NaHCO₃ at pH 8.3. An ELISA plate was coated with 100 μg CD33 protein at 4° C. overnight. The next day, […] BSA-Biotin protein was added to the ELISA plate.
3. 100 μL of crude antibody extract obtained in the above step was transferred to the ELISA plate into which the antigen was added, and incubated at room temperature for 1 h.

Binder | binding result
B8 | binds
